*1 amine or outer side, *2 acyl side, *3 side chain or, on linkers, in order; H or OH if unused. Bridges are numbered along the chain shown (N, C = ends). Where no end group is shown, it is not given here. Side-chain parts run from the residue outwards. The star is where a group is joined. C18 diacid = O=C(O)CCCCCCCCCCCCCCCCC(=O)*; γGlu = O=C(O)[C@H](CCC(=O)[*:2])N[*:1]; AEEA = NCCOCCOCC(=O)O

B1: human alpha-CGRP acylated at position 26 (peptide)
peptide: ACDTATCVTHRLAGLLSRSGGVVKNK([AEEA-AEEA-γGlu-C18 diacid])FVPTNVGSKAF
modifications: disulfide 2-7; ends not checked
B2: human alpha-CGRP acylated at position 11 (peptide)
peptide: ACDTATCVTHK([AEEA-AEEA-γGlu-C18 diacid])LAGLLSRSGGVVKNNFVPTNVGSKAF
modifications: disulfide 2-7; ends not checked
B3: human alpha-CGRP acylated at position 31 (peptide)
peptide: ACDTATCVTHRLAGLLSRSGGVVKNNFVPTK([AEEA-AEEA-γGlu-C18 diacid])VGSKAF
modifications: disulfide 2-7; ends not checked
B4: rat CGRP-alpha (peptide, UniProt P01256 83-119, looked up)
peptide: SCNTATCVTHRLAGLLSRSGGVVKDNFVPTNVGSEAF
modifications: disulfide 2-7; ends not checked
B5: human alpha-CGRP acylated at position 25 (peptide)
peptide: ACDTATCVTHRLAGLLSRSGGVVKKNFVPTNVGSKAF
modifications: position 25 (printed X) = N-ε-{2-(2-{2-[2-(2-{2-[4-carboxy-4-(17-carboxyheptadecanoylamino)butyrylamino]ethoxy}ethoxy)-acetylamino]ethoxy}ethoxy)acetyl})-L-lysine; Cys2 and Cys7 are cyclised with a disulfide bond
B6: human alpha-CGRP acylated at position 4 (peptide)
peptide: ACDK([AEEA-AEEA-γGlu-C18 diacid])ATCVTHRLAGLLSRSGGVVKNNFVPTNVGSKAF
modifications: disulfide 2-7; ends not checked
B7: human alpha-CGRP acylated at position 28 (peptide)
peptide: ACDTATCVTHRLAGLLSRSGGVVKNNFK([AEEA-AEEA-γGlu-C18 diacid])PTNVGSKAF
modifications: disulfide 2-7; ends not checked
B8: human alpha-CGRP acylated at position 29 (peptide)
peptide: ACDTATCVTHRLAGLLSRSGGVVKNNFVK([AEEA-AEEA-γGlu-C18 diacid])TNVGSKAF
modifications: disulfide 2-7; ends not checked
B9: human alpha-CGRP acylated at position 3 (peptide)
peptide: ACK([AEEA-AEEA-γGlu-C18 diacid])TATCVTHRLAGLLSRSGGVVKNNFVPTNVGSKAF
modifications: disulfide 2-7; ends not checked

This assay addresses CGRP receptor: calcitonin receptor-like receptor (CRLR) with receptor activity modifying protein-1 (RAMP1), stably transfected in Chinese hamster ovary (CHO) cells together with CRE luciferase. Put plainly: cell-based or functional assay.
In the case of “rat CGRP-beta (from UniProt P10093 89-125) (peptide)”, the EC50, pM (in vitro potency; CGRP-induced cAMP accumulation in CGRP receptor expressing cells, CRE luciferase) was found to be 9 pM.

In the case of B1, the pEC50-ratio relative to human alpha-CGRP turned out to be 0.38.

As for B2, the pEC50-ratio relative to human alpha-CGRP was 0.28.

For B3, the pEC50-ratio relative to human alpha-CGRP stood at 0.44.

In the case of B4, the EC50, pM (in vitro potency; CGRP-induced cAMP accumulation in CGRP receptor expressing cells, CRE luciferase) was found to be 5 pM.

Consider B5, for which the pEC50-ratio relative to human alpha-CGRP amounted to 0.23.

With B6, the pEC50-ratio relative to human alpha-CGRP was determined as 0.15.

In the case of B7, the pEC50-ratio relative to human alpha-CGRP came out at 0.62.

For the molecule B8, the pEC50-ratio relative to human alpha-CGRP was found to be 0.41.

Turning to B9, the pEC50-ratio relative to human alpha-CGRP came out at 0.14.

Values taken from patent publication US8835379B2, “Derivatives of CGRP” (Novo Nordisk A/S, priority 2009, dated 2014).
